Experimental findings from patent publication US20240343823A1 (Ablynx, published 2024) are described below.

What is called IC50 is the concentration that inhibits the measured activity by half. Low values mean higher potency, high ones lower potency. A word on the Kd: it is the equilibrium constant for the complex coming apart.

The target in assay [1] is T1, TCRab on primary human T cells (human, UniProt P01848 1-140; P01850 1-176).
T1 construct: whole, on cells; T cells isolated from buffy coats; also called Primary hu T cells; human TCR
T1 TCR alpha (looked up): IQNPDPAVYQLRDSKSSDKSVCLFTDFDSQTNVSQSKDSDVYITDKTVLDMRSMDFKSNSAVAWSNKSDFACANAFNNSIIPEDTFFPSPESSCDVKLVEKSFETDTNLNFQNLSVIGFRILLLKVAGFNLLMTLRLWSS
T1 TCR beta (looked up): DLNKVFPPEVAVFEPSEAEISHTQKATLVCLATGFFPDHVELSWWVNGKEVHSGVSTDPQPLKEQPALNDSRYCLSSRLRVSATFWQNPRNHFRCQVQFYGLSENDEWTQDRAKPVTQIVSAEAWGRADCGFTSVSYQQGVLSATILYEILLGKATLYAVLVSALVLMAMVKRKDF
The assay is described as follows: competition flow cytometry on primary human T cells, competitor T017000624 at EC30 (2E-08 M). How it is done: T cells (human T cells obtained as described in Example 3 and cyno T cells purchased from LPT laboratory, Germany) were thawed and counted on the day of the assay and diluted to a concentration of 1E+06 cells/mL, before adding 75 μL to the wells of a V-bottom 96-well plate (Greiner, cat no 651180). Cells were washed once with cold FACS buffer, before adding 25 μL Nb and 25 μL competitor to the wells. […] Cells were resuspended and plates were incubated at 4° C. for 90 minutes, after which plates were washed twice in cold FACS buffer. Cells were resuspended in 50 μl 1/1000 diluted Monoclonal ANTI-FLAG® M2 (Sigma Aldrich, cat no F1804) in FACS buffer and incubated at 4° C. for 30 minutes. Plates were washed twice in cold FACS buffer. […] Plates were washed twice in cold FACS buffer. Cells were resuspended in 55 μL 1/1000 diluted Propidium Iodide (Sigma-Aldrich, cat no P4170) in FACS buffer before acquiring data on the MACSQuant X (Miltenyi biotec).
(In flow cytometry, cells or beads pass a laser one at a time.)

In assay [2] the target is T2, cyno Glypican-3 delta-GPI-HIS, in-house produced (cynomolgus).
T2 construct: range 3-559; also called cyno GPC3; cyGPC3
The assay is described as follows: SPR ProteOn XPR36, GPC3 captured on anti-His antibody, 1:1 model. How it is done:
(§1) Recombinant GPC3 proteins were captured on a GLC Sensor Chip (Biorad) immobilized with THE anti-His antibody (Genscript, cat no ABIN387699) via amine coupling, using EDC and NHS chemistry (running buffer: HBS-EP+, pH7.4). Purified ISVDs were injected for 2 minutes (flow rate 45 μL/min) at different concentrations (between 0.3 nM and 1000 nM) and dissociation was followed for 900 s. Regeneration was performed by injecting 10 mM Glycine-HCl (pH 1.5) for 1 minute (flow rate 45 μL/min). Data was double referenced by subtracting a reference ligand lane and a blank buffer injection. Processed sensorgrams were analyzed based on the 1:1 interaction model (Langmuir binding model) using ProteOn Manager 3.1.0 (Version 3.1.0.6) software.

Assay [3] has as its target T3, recombinant human Glypican-3 (R&D Systems, cat nr. 2119-GP) (human, UniProt P51654 25-559).
T3 construct: Bought protein; also called human GPC3; hGPC3
The description is as above. On the procedure: as §1

In assay [4] the target is T4, Human GPC1 (R&D systems, cat no 4519-GP) (human, UniProt P35052 24-530, limits assumed).
T4 construct: Bought
T4 sequence (looked up): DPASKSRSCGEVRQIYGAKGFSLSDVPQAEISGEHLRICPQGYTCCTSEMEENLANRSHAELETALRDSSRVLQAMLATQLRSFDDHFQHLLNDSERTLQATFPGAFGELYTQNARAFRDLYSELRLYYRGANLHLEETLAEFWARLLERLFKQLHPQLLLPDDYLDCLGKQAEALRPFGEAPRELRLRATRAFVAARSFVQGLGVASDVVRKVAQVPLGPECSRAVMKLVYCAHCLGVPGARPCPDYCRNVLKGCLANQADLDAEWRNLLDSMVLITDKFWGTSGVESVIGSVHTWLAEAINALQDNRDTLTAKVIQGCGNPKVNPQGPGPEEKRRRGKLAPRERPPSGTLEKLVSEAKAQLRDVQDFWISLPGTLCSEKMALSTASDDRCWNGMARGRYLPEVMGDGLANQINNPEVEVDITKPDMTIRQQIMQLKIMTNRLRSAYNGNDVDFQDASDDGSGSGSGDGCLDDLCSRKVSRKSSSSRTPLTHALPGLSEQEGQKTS
The assay can be described thus: ELISA, GPC1 coated at 2 ug/mL. On the procedure: (§2) Human GPC1 (R&D systems, cat no 4519-GP), human GPC2 (R&D systems, cat no 2304-GP), human GPC3 (R&D systems, cat no 2119-GP), human Glypican-5 (R&D systems, cat no 2607-G5) and human Glypican-6 (R&D systems, cat no 2845-GP) were directly coated overnight at 4° C. (2 μg/mL, 1×PBS buffer) on a 384-well HB SpectraPlate (PerkinElmer). The following day the plate was washed 6 times (AquaMax microplate washer, Molecular devices) and blocked with 1×PBS+1% Casein for 2 hours at room temperature. […] After 6 final wash steps the es(HS)TMB substrate (SDT) was added and the reaction stopped by addition of 1 M HCl after 10 minutes. The absorbance of the plate was measured at wavelengths 450 and 620 nm on the Clariostar instrument (BMG LABTECH) and the OD₄₅₀-OD₆₂₀ calculated and plotted for data analysis.

In assay [5] the target is T5, human Glypican-5 (R&D systems, cat no 2607-G5) (human, UniProt P78333 25-553, limits assumed).
T5 construct: Bought; also called GPC5
T5 sequence (looked up): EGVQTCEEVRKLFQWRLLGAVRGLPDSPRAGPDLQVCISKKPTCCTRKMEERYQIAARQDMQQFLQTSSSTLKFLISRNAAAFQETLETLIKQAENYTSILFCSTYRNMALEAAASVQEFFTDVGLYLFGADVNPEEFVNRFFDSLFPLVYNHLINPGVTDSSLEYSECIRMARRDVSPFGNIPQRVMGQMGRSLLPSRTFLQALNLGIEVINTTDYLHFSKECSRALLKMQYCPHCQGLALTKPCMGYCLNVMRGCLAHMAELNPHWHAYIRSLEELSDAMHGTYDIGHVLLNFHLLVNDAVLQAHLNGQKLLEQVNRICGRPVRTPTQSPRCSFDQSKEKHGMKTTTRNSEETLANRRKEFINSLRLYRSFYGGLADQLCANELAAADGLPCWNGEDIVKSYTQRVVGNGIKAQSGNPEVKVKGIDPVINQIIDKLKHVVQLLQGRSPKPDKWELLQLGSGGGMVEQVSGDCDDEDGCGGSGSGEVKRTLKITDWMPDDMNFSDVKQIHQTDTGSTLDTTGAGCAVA
The assay is described as follows: ELISA, Glypican-5 coated at 2 ug/mL. On the procedure: as §2

Bounds are passed on as bounds.

B1: A022600424 (other)
chain: DVQLVESGGGVVQPGGSLRLSCVASGYVHKINFYGWYRQAPGKEREKVAHISIGDQTDYADSAKGRFTISRDESKNTVYLQMNSLRPEDTAAYYCRALSRIWPYDYWGQGTLVTVSSGGGGSEVQLVESGGGVVQPGGSLRLSCAASGFTFSSFAMTWVRRPPGKGLEWVATITNKGVTSYADSVKGRFTISRDNAKNTLYLQMNSLRPEDTALYICANARRTGPRAPTDIGSYRGQGTLVTVSSGGGGSGGGSEVQLVESGGGVVQPGGSLRLSCAASGSIFRSVFSSSTMEWYRQAPGKKRELVARIAPGEGTYYGALYADSVKGRFTISRDNAKNTVYLQMNSLRPEDTALYYCASGVAWGQGTLVTVSSGGGGSGGGSEVQLVESGGGVVQPGGSLRLSCAASGFTFRSFGMSWVRQAPGKGPEWVSSISGSGSDTLYADSVKGRFTISRDNSKNTLYLQMNSLRPEDTALYYCTIGGSLSRSSQGTLVTVSSA
notes: Trispecific tetravalent ISVD (VHH) T-cell engager: anti-TCR, two anti-GPC3 (biparatopic), anti-albumin; also called TCE01-5GS-A022600351-9GS-A022600314-9GS-ALB23002-A
Consider B1, for which the concentration for half-maximal inhibition (IC50) in assay [1] amounted to 170 nM. Further, the figures for the equilibrium dissociation constant (Kd) in assay [2] and in assay [3] were less than 0.0059 nM and less than 0.0056 nM, respectively. Further, the binding result in assay [4] and in assay [5] was “no binding” in each case.
